Target: Collagen matrix (Purecol) (UniProt P02453)
Test: retention in a polymerised collagen gel

Chain of UniProt P02453 (P02453 162-1217, chain 1 of 2): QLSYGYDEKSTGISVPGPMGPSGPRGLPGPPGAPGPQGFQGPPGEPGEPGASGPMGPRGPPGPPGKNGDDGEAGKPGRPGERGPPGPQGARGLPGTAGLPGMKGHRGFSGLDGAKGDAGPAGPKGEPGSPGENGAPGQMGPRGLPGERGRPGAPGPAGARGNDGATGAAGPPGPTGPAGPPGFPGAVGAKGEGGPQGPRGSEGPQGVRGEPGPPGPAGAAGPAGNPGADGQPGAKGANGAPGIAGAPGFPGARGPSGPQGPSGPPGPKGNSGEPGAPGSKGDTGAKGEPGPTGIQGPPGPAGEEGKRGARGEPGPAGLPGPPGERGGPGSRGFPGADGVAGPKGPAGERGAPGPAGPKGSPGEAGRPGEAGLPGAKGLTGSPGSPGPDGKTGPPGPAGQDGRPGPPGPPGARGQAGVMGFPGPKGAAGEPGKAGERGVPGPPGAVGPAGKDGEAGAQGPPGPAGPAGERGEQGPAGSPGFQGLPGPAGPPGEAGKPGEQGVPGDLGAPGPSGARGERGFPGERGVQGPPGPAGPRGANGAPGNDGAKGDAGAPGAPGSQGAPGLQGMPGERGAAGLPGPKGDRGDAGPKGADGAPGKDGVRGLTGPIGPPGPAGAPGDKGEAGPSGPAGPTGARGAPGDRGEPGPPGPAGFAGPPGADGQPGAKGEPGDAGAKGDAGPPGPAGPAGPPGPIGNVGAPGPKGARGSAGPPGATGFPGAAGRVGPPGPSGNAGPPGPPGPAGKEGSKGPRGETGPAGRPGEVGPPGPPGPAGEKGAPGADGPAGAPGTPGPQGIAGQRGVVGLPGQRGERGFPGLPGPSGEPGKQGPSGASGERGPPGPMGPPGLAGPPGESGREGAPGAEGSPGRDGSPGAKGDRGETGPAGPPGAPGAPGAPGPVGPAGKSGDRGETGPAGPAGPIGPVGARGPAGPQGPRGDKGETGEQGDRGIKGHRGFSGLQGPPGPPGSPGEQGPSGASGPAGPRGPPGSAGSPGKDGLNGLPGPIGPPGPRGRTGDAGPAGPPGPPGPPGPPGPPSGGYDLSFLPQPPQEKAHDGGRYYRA
Chain of UniProt P02453 (P02465 80-1117, chain 2 of 2, further chain): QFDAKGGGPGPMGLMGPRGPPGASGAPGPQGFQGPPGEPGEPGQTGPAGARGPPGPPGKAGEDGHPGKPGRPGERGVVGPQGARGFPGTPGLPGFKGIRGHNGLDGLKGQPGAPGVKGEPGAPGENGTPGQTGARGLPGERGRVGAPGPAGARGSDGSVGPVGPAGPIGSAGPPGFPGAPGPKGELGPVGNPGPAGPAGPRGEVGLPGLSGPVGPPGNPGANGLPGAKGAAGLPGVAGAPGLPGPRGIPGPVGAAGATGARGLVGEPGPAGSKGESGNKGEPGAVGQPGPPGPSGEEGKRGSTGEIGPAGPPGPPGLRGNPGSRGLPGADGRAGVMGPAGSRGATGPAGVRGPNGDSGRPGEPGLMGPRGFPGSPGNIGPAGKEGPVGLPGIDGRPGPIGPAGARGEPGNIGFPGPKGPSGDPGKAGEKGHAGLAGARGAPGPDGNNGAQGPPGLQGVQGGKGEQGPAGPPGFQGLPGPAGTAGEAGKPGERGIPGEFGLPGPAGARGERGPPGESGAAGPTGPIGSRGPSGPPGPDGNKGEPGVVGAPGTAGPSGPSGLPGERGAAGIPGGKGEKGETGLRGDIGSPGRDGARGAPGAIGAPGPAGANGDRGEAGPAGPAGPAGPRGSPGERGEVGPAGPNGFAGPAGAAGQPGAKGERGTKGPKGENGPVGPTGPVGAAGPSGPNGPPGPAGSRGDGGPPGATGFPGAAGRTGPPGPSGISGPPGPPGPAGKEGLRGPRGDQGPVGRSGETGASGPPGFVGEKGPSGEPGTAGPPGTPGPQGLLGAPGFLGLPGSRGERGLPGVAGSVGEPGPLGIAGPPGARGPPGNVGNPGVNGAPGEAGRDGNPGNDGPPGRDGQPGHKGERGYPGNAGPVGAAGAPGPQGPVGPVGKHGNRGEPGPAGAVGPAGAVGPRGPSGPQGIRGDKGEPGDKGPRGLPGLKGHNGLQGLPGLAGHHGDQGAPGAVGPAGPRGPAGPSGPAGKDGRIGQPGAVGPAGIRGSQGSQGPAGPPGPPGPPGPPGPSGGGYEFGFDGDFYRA

percent retained in the collagen gel after washes: > 80%
Substance: Human VEGF165 (ligand)

From article PMC2828913
